Results from patent US20250382355A1 (Merck Sharp & Dohme, published 2025).

B1: 5A6 VHH-Fc (Fc fusion)
chain: QVQLVESGGGLAQAGGSLRLSCATSGLTFSMSAMGWFRQAPGNEREFVGVINWNGGSSRYADSVRGRFTISRDNAKNTVYLQMNSLKPEDTGVYYCAADALNIGTGEVNPRLYDYWGQGTQVMVSS
B2: 13C8 VHH-Fc (Fc fusion)
chain: QVQLVESGGGLVQAGGSLRLSCAASGRTVNKYMTGWFRQTPGKEREFVASIDWSSTTTHYANSVKGRFTISRDKVKNTVYLQMNGLKPEDTAVYYCAAHQDSSYGYTILPIDYDSWGQGTQVTVSS
B3: 10B8 VHH-Fc (Fc fusion)
chain: QVQLVESGGGLVQPGGSLRLSCAASGITLDYYAIAWFRQAPGKEREGVSCFCSSDGDIRYADSVKGRFTISRDNAKNTVYLQMNSLKPEDTAVYYCATERVYSSTWFFHRYSELDFGSWGRGTQVTVSS
B4: 19E10 VHH-Fc (Fc fusion)
chain: QVQLVESGGGLVQPGGSLRLSCVASGSTISINSMGWYRQAPGKAREMVATITNDGPIKYADPVKGRFTISRDNPKNTVYLQMNSLKPEDTAVYYCVADRAYWLAGEWEYWGQGTQVTVSS
B5: 8E9 VHH-Fc (Fc fusion)
chain: QVQLVESGGGLVEAGGSLRLSCVASGSSSSINAMGWYRQAPGKQRELVASISHDGETKYANSVKGRFTISRGNAKNTIYLQMNSLKPEDTAVYYCVGDVAWVVVAGEYDYWGQGTQVTVSS
B6: 5D7 VHH-Fc (Fc fusion)
chain: QVQLVESGGGLVQAGGSLRLSCAASGRTGSRYIMGWFRQAPGKEREFVAAINWRGDSTYYADSVKGRFTIARDNAKNTAYLQMNSLKPEDTAVYYCVADRGESYYYTRSTEYTYWGQGTQVTVSS
B7: 7A9 VHH-Fc (Fc fusion)
chain: QVQLVESGGGLVQAGGSLRLSCSASGGTASRSAMGWFRQAPGKEREFVAGISRRNSGSTYVADSYEDSVKGRFTISRDNAKNTIYLQMNSLKPEDTAVYYCAAEPTLGWYVPRRSVEYEYWGQGTQVTVSS
B8: 15H1 VHH-Fc (Fc fusion)
chain: QVQLVESGGGLAQAGGSLRLSCASSGLIFSGSAMGWFRQAPGKEREFVGVISWNGRTTYADSVKGRFTISRDDAVNMVWLQMNNLKPEDTAVYYCAADHLNYGSGDVNPRTYDYWGQGTQVTVSS
B9: 15H7 VHH-Fc (Fc fusion)
chain: QVQLVESGGRLVQAGGSLRLSCAAPGRTFRNLTLGWFRQAPGKEREFVASTSWPDDEMTYYTDSVKGRFTISRDNAKNTVYLQMNSLKPEDTAVYYCAAASWSGRSTLSYDYDYWGQGTQVTVST
B10: 5G11 VHH-Fc (Fc fusion)
chain: QVQLVESGGGLVQAGGSLRLSCAASGRTFSIYAVGWFRQAPGKERDFVAGITWSGGTTYYSDSVKGRFTISRDNAKNTVYLQMNNLKPEDTAIYYCAVDTYSMTLSARSYDYWGQGTQVTVSS
B11: 1A11 VHH-Fc (Fc fusion)
chain: QVQLVESGGGLVQAGGSLRLSCEVSGSIYSINSMGWYRQAPGKQRELVAGIVSDGRINYADSVKGRFTISRAKNTVYLQMNSLKPEDTAVYYCAADRAFVYAGDYDYLGQGTQVTVSS
B12: 11F8 VHH-Fc (Fc fusion)
chain: QVQLVESGGGLVQAGGSLRLSCAASGRTVGYYAVGWFRQAPGKERDFVAAISWSGRNTNYADSVTGRFTIFRDNAKNTVDLQMNSLKPEDTAVYYCAADYWNYGSGSEVPNNYDTWGQGTQVTVSS
B13: 9B2 VHH-Fc (Fc fusion)
chain: QVQLVESGGGLVQPGGSLRLSCAASGFTLDNYAIGWFRQAPGKEREGVSCISSSDGDTQYADSVKGRFTISRDNAKNTVYLQMNSLKPEDTAVYYCAVEKVYARSWFFHLCSELDFGSWGQGTQVTVSS

Biological target: SARS-CoV prefusion-stabilized spike protein (SARS-CoV-PreS) (SARS-CoV, UniProt P59594 14-1190)
Experiment: ELISA

Binder | EC50 [nM]
B1 | 0.09
B2 | 0.1
B3 | 0.13
B4 | 0.03
B5 | 0.08
B6 | 0.04
B7 | 0.06
B8 | 0.06
B9 | 0.08
B10 | 0.18
B11 | 0.05
B12 | 0.18
B13 | 0.12
